Legend:
Dynamic light scattering = format: physicochemical; details: 37 °C, fractions eluted from SEC (CIB2 A2 band), mean ± SEM; n = 15 (CIB2), 18 (Rec), 30 (CaM); 1.8 µM CIB2, 11 µM Rec, 7.4 µM CaM
Method: DLS measurements were performed using Zetasizer Nano-S (Malvern Instruments) at 37 °C by setting the same parameters for hydrodynamic diameter estimation as in ref.[26]. The estimation was based on 15–30 measurements, each consisting of at least 13 repetitions; data in Table 1 are reported as mean ± standard error of mean (SEM). DLS samples for each protein are the same collected in the Analytical Size Exclusion Chromatography.
His-tagged proteins, and then blocked via amine coupling as explained above. Preparation of the […]
approximately 2250 RU of CIB2 immobilized. In binding experiments, peptide concentration was varied in the 230 nM- 30 μM range for both α7B_M, and α7B_C, and experiments were repeated 4 times, both with the HBS buffer described above (containing 1 mM MgCl2) and with further addition of 2 mM CaCl2. Flow rate was set to 20 μl min−1 in all binding experiments, and the dissociation […]
Figure S1: DLS measurements of the SEC collected peaks. CIB2 band A2 (A), Rec (B) and CaM (C). Each data set consisted of 15-30 measurements (grey lines), with 13-15 repetitions each. Colored lines are referred to the average distribution. Temperature was set to 37°C and samples were equilibrated for 2 min before measurements.
Figure S2: Time-resolved proteolysis experiments. […]

Rec = details: presence of Ca^2+; cited from earlier work
Description: Solvation of their large hydrophobic surfaces might influence the intera ...

[1] = Analytical size exclusion chromatography; format: physicochemical; details: analytical SEC, 20 mM HEPES pH 7.4, 150 mM KCl, 1 mM DTT, 1 mM Mg^2+, 2 mM Ca^2+; CIB2 ∼70 µM (A2 band), Rec ∼80 µM, CaM ∼110 µM
Method: The molecular weight (MW) of the proteins was determined before and after DSBU-modification as previously described[7] in the same buffer (20 mM HEPES, pH 7.5, 1 mM DTT, 1 mM Mg^2+ and 2 mM Ca^2+). […] Standard calibration curve for MW estimation was the same used in our previous study.

B1: Rec: bovine Rec, Ca^2+-sensor protein (protein, UniProt P21457 2-202, looked up)
Recoverin: GNSKSGALSKEILEELQLNTKFTEEELSSWYQSFLKECPSGRITRQEFQTIYSKFFPEADPKAYAQHVFRSFDANSDGTLDFKEYVIALHMTSAGKTNQKLEWAFSLYDVDGNGTISKNEVLEIVTAIFKMISPEDTKHLPEDENTPEKRAEKIWGFFGKKDDDKLTEKEFIEGTLANKEILRLIQFEPQKVKEKLKEKKL
In the case of B1, the “DLS Ø hydrodynamic diameter” value (Dynamic light scattering) is listed as 5.0 ± 0.1 nm, the “concentration above which dimers were isolated” value (Rec) is listed as “above 100 μM” and the “MW^SEC” value [1] is listed as 33.5 kDa.
